Assay results published in US5864018.

How the values were obtained:
[1] = target: human recombinant soluble RAGE/flag fusion protein (human); experiment: excess lactoferrin against 125I-AGE-BSA binding to immobilized RAGE, Exp. 2; the filing leaves open whether lactoferrin acts through RAGE or AGE
[2] = target: human recombinant soluble RAGE/flag fusion protein (human); experiment: excess native BSA against 125I-AGE-BSA binding to immobilized RAGE, Exp. 2
[3] = target: human recombinant soluble RAGE/flag fusion protein (human); experiment: excess native BSA against 125I-AGE-BSA binding to immobilized RAGE, Exp. 3
AGE-BSA (bovine) = AGE-BSA (bovine) (UniProt P02769); experiment: excess free RAGE/DCC chimera against 125I-AGE-BSA binding to immobilized RAGE, Exp. 1

lactoferrin (ligand)
% Binding [1]: 50%

native BSA (from UniProt P02769)
% Binding [2]: > 100% | % Binding [3]: > 100%

recombinant soluble RAGE/DCC chimeric protein (receptor)
% Binding (AGE-BSA (bovine)): 40%
